Assay: yeast display, Sf9 membrane polyspecificity reagent, FACS + sequencing; frameworks hold sequencing errors
Summary of the method: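 Synthetic nanobody libraries on Saccharomyces cerevisiae BJ5465 were galactose-induced for 36–48 hours, stained 1 hour at 4 °C with 10% biotinylated, detergent-solubilized Sf9 membrane reagent and enriched on streptavidin microbeads. FACS then separated cells into low and high (top ~1%) gates by anti-HA (expression) and streptavidin (reagent binding) fluorescence. Genes were colony-PCR amplified, MiSeq 2 × 250 sequenced and CDR-length filtered. A clone's polyreactivity label is that of its gate of origin.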

Row | Sequence | polyreactivity (PSR sort gate)
1 | QVQLVESGGGLVQAGGSLRLSCAASGFIFSWNAMGWYRQAPGKERELVAGISWSGGSTYYADSVKGRFTISRDNAKNTVYLQMNSLKPEDTAVYYCAKEPSVGTGGVYRYGRGDYWGQGTQVTVSS | low polyreactivity
2 | QVQLVESGGGLVQAGGSLRLSCAASGFIFSWYAMGWSRQAPGKERELVAAIDQSGDSTYYADSVKGRFTISRDNAKNTVYLQMNSLKPEDTAVYYCAAQSYDYWYDYDYWGQGTQVTVSS | high polyreactivity
3 | QVQLVESGGGLVQAGGSLRLSCAASGFIFSWYAMGWSRQAPGKERELVAAISHDGGSTYYADSVKGRFTISRDNAKNTVYLQMNSLKPEDTAVYYCAAAFRAAGRTVRYYWGQGTQVTVSS | high polyreactivity
4 | QVQLVESGGGLVQAGGSLRLSCAASGFIFSWYAMGWYRQAPGKERELVAAITSGGSTYYADSVKGRFTISRDNAKNTFYLQMNSLKPEDTAVYYCGTVVTYRYAFPYGYWGQGTQVTVSS | high polyreactivity
5 | QVQLVESGGGLVQAGGSLRLSCAASGFIFSYAMGWYRQAPGKERELVAAISKSGGRTYYADSVKGRFTISRDNAKNTVYLQMNSLIPEDTAVYYCAVRDLHLSNARYNYWGQGSQVTVSS | high polyreactivity
6 | QVQLVESGGGLVQAGGSLRLSCAASGFIFSYNAMRWYRQAPGKERELTYADSVKGRFTISRDNAKNTVYLQMNSLKPEDTAVYFCAAGEYGRQYDGDYWGQATQVTVSS | low polyreactivity
7 | QVQLVESGGGLVQAGGSLRLSCAASGFIFSYYAKGWYRQAPGKERELVAAIDGSGGSTYYADSVKGRFTISRDNAKNTVYLQMNSLKPVDTAVYYCNTLIFIQGLGYDYWGQGTQVTVSS | high polyreactivity
8 | QVQLVESGGGLVQAGGSLRLSCAASGFIFSYYAMGWYRQAPGKERELVAAISSGGSTYYADSVKGRFTISRDNAKNSVYLQMNSLKPEDTAVYYCAAAIWYIILYFVRRTEHGYWGQGTQVTVSS | low polyreactivity
9 | QVQLVESGGGLVQAGGSLRLSCAASGFIFTDNAMGWYRQAPGKESEFVAAITYSGGSTYYADSVKGRFTISRDNAKNTVYLQMNSLKPEDTAVYYCNKDFFPAPVVVTAYEYEYWGQGSQVTVSS | low polyreactivity
10 | QVQLVESGGGLVQAGGSLRLSCAASGFIFTGYAMGWYRQAPGKERELVATISRRGGSTYYADSVKGRFTISRDNAKNTVYLQMNSLKPEDTAVYYCAAQRTLYRSGFDSWGQGTQVTVSS | high polyreactivity
11 | QVQLVESGGGLVQAGGSLRLSCAASGFIFTIYAMGWYRQAPGKERELVAAISSGGSTTYADSVKGRFTISRDNAKNTVYLQMNSLKPEDTAVYYCNAGVDPFGSLLPFTDQYDYWGQGTQVTVSS | low polyreactivity
12 | QVQLVESGGGLVQAGGSLRLSCAASGFIFTNVMGWYRQAPGKERELVAAISGRGTSTYYADSVKGRFTISRDNAKNTVYLQMNSLKPEDTAVYYCAAYFTSRLDYWGQGTQVTVSS | high polyreactivity
13 | QVQLVESGGGLVQAGGSLRLSCAASGFIFTPYAMGWYRQAPGKERELVAAIRSGTSTNYADSVKGRFTISRDNAKNTVYLQMNSLKPEDTAVYYCAAEEGLIDGRAWYGYWGQGTQVTVSS | low polyreactivity
14 | QVQLVESGGGLVQAGGSLRLSCAASGFIFTPYAMGWYRQAPGKERELVAAITWRGARTYYADSVKGRFTISRDIAKNSVYLQMNSLKPEDTAVYYCAALSRRSYAPRDDYWGQGTQVTVSS | high polyreactivity
15 | QVQLVESGGGLVQAGGSLRLSCAASGFIFTPYTMGWYRQAPGKERELVAAITDGSSTYYADSVKGRFTISRDNAKNTVYLQMNSLKPEDTAVYYCAAVPRYQYGYWGQGTQVTVSS | low polyreactivity
16 | QVQLVESGGGLVQAGGSLRLSCAASGFIFTQYAMGWYRQAPGKERELVAGITSSGNTYYADSVKGRFTISRDNAKNPVYLQMNSLKPEDTAVYYCAARSASRRMDYWGQGTQVTVSS | high polyreactivity
17 | QVQLVESGGGLVQAGGSLRLSCAASGFIFTRNAMGWYRQAPGKERELVAAISASGGRTYYADSVKGRFTISRDNAKNTVYLQMNSLKPEDTAVYYCNTGIYVARSTYGRFKYDYWGQGTQVTVSS | high polyreactivity
18 | QVQLVESGGGLVQAGGSLRLSCAASGFIFTRNAMGWYRQAPGKERELVATISRSGSSTSYADSVKGRFTISRDNAKNTVYLQMNRLKPEDTAVYYCAATYIYRHSVISRYDYWGQGTQVTVSS | high polyreactivity
19 | QVQLVESGGGLVQAGGSLRLSCAASGFIFTSYARGWYRQAPGKDRELVAAITRSGASTSYADSVKGRFTISRDNAKNTVYLQMNSLKPEDTAVYYCAAKAPLPRYYVPRYDYWGQGTQVTVSS | high polyreactivity
20 | QVQLVESGGGLVQAGGSLRLSCAASGFIFTTYAMGWSRQAPGKEWELVAAISTSGGRTYYADSVKGRFTISRDNAKNTVYLQMNSLKPEDTAVYYCNTYSYYSYDWGQGTQVTVSS | high polyreactivity
21 | QVQLVESGGGLVQAGGSLRLSCAASGFIFTTYDMGWYRQAPGKEMELVAAITGSGGRTYYADSVKGRFTISRDNAKNTVYLQMNSLKPEDTAVYYCAARWGNVRFRYGYWGQGTQVTVSS | high polyreactivity
